Measured values: PMC12343898

Key:
OsLHY [1] = target: T1, OsLHY (Oryza sativa, UniProt A0A0P0XBU0 1-719); assay: competition
OsLHY [2] = target: T1, OsLHY; assay: competition; remark: listed apart in the source
OsNAC15 = target: T2, OsNAC15 (Oryza sativa, UniProt K9LKF1 1-301); assay: EMSA
T2 sequence: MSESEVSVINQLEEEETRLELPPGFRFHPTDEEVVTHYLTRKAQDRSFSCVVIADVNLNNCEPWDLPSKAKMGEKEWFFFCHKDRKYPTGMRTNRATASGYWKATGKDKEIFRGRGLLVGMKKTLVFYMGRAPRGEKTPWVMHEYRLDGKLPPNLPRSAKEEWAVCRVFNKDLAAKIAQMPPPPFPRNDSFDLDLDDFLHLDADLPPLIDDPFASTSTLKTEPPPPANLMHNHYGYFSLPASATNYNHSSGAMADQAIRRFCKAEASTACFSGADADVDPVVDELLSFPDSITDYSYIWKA

OsLHY [3] = target: T1, OsLHY; assay: EMSA

T1 sequence (A0A0P0XBU0 whole entry): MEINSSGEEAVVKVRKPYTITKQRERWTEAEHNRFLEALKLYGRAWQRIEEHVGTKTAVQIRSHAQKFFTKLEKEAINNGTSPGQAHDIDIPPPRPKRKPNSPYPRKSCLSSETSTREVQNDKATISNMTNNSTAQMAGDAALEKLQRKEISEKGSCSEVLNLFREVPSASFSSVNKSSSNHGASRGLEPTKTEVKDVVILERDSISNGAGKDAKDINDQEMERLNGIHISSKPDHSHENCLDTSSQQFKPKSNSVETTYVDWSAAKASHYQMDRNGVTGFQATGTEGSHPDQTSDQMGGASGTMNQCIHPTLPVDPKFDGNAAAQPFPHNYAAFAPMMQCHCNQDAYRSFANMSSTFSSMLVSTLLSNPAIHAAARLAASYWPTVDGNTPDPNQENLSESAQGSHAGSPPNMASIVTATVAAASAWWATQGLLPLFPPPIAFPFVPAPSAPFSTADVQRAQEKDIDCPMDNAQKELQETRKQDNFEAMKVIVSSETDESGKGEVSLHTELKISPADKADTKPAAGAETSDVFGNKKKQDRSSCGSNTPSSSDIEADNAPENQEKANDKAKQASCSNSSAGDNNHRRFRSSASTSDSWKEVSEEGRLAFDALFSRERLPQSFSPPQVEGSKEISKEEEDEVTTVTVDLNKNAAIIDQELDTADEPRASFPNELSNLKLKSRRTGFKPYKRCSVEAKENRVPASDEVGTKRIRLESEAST

B1: OsLHY mCold probe, 3x AAGGCGCCC (dsDNA)
DNA 1: AAGGCGCCCAAGGCGCCCAAGGCGCCC
DNA 2: GGGCGCCTTGGGCGCCTTGGGCGCCTT
binding result (OsLHY [1]): no binding

B2: OsLHY Cold probe, 3x AAGATATTT (dsDNA)
DNA 1: AAGATATTTAAGATATTTAAGATATTT
DNA 2: AAATATCTTAAATATCTTAAATATCTT
binding result (OsLHY [2]): binds

B3: OsNAC15 Bio-probe, 3x AGCAAGA (dsDNA)
DNA 1: AGCAAGAAGCAAGAAGCAAGA
DNA 2: TCTTGCTTCTTGCTTCTTGCT
binding result (OsNAC15): binds

B4: OsLHY Bio-probe, 3x AAGATATTT (dsDNA)
DNA 1: AAGATATTTAAGATATTTAAGATATTT
DNA 2: AAATATCTTAAATATCTTAAATATCTT
binding result (OsLHY [3]): binds
